The record followed here is patent US20110045007A1.

In assay [1] the target is 2F8-HG F273A (human). As to the kind of experiment: non-covalent nano-electrospray mass spectrometry, 1 µM; self-association.
Assay [2] has as its target 2F8-HG F273L (human). Described as above.

B1: 2F8-HG F273A (antibody, part only; not given: 2F8 variable domains, not shown: a dimerising Fc or GST)
heavy, part: ASTKGPSVFPLAPCSRSTSESTAALGCLVKDYFPEPVTVSWNSGALTSGVHTFPAVLQSSGLYSLSSVVTVPSSSLGTKTYTCNVDHKPSNTKVDKRVAPEFLGGPSVFLFPPKPKDTLMISRTPEVTCVVVDVSQEDPEVQFNWYVDGVEVHNAKTKPREEQFNSTYRVVSVLTVLHQDWLNGKEYKCKVSNKGLPSSIEKTISKAKGQPREPQVYTLPPSQEEMTKNQVSLTCLVKGFYPSDIAVEWESNGQPENNYKTTPPVLDSDGSFALYSRLTVDKSRWQEGNVFSCSVMHEALHNHYTQKSLSLSLGK
As to B1, the percentage molecules present as monomers in assay [1] was > 80%.

B2: 2F8-HG F273L (antibody, part only; not given: 2F8 variable domains, not shown: a dimerising Fc or GST)
heavy, part: ASTKGPSVFPLAPCSRSTSESTAALGCLVKDYFPEPVTVSWNSGALTSGVHTFPAVLQSSGLYSLSSVVTVPSSSLGTKTYTCNVDHKPSNTKVDKRVAPEFLGGPSVFLFPPKPKDTLMISRTPEVTCVVVDVSQEDPEVQFNWYVDGVEVHNAKTKPREEQFNSTYRVVSVLTVLHQDWLNGKEYKCKVSNKGLPSSIEKTISKAKGQPREPQVYTLPPSQEEMTKNQVSLTCLVKGFYPSDIAVEWESNGQPENNYKTTPPVLDSDGSFLLYSRLTVDKSRWQEGNVFSCSVMHEALHNHYTQKSLSLSLGK
B2: in assay [2], the percentage molecules present as monomers was > 80%.
